In the supplement of paper PMC9170038:

System: MS2 coat protein
Experiment: apparent KD of MS2 coat protein; designed switch direction (-1 OFF switch, 1 ON switch): -1; higher = weaker reporter binding
Procedure, shortened: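 Transcription of designed RNA switches on Illumina chips was done by stalled E. coli RNA polymerase. SNAP-549-labelled MS2 coat protein was then titrated in doubling steps from 0.7 or 1.5 nM to 3 µM, with steps of 0.8–1.5 h at the lowest and 10–20 min at the highest concentration. The per-design median over clusters of curve-fitted normalised fluorescence is reported as apparent KD.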

[1] = input ligand: microRNA oligo, concentration not stated
[2] = Eterna round: R95, input ligand: FMN 200 uM
[3] = Eterna round: R95, input ligand: microRNA oligo, concentration not stated
[4] = Eterna round: R95, input ligand: none

| Sequence | apparent KD of MS2 coat protein (input ligand: FMN 200 uM) [µM] | apparent KD of MS2 coat protein (input ligand: none) [µM] | apparent KD of MS2 coat protein [1] [µM] | apparent KD of MS2 coat protein [2] [µM] | apparent KD of MS2 coat protein [3] [µM] | apparent KD of MS2 coat protein [4] [µM] |
| --- | --- | --- | --- | --- | --- | --- |
| GCAGCAUUAGGAUAUUGCUAAUGUAACAUGAGGAUCACCCAUGUGUGUCGUUAUUACUUAUAAGAAGGAAUGUGCC [Eternabot (L2) Solution 88] (Eterna round: R97, puzzle: Exclusion 5) | 0.0249 | 0.0364 | – | – | – | – |
| GCAGCGUAGUCCAAAUAGGACAUACAUGAGGAUCACCCAUGUCAGGAUAUGGUCUGGAUUACAGGCCAGAAGGGACAAAGCUGC [Eli exng3 - 003] (Eterna round: R96, puzzle: Exclusion NG 3) | 0.019 | 0.026 | 0.0158 | – | – | – |
| GCAGCGUAGUCUAAAUAAGACAUACAUGAGGAUCACCCAUGUCAGGAUAUGGUCUGGAUUACAGGCCAGAAGGGACAAAGCUGC [Eli exng3 - 002] (Eterna round: R96, puzzle: Exclusion NG 3) | 0.0214 | 0.0177 | 0.0165 | – | – | – |
| GCAGCGUAUGUAGGAUAUCGGUCAGUUUCUGAUCGAGAAGGACAUGAGGAUCACCCAUGUAUAUUCUAGCGUGAGCUAGGCUGC [JL ENG1 3.70] (Eterna round: R96, puzzle: Exclusion NG 1) | – | – | 0.0143 | – | – | – |
| GCAGCUAAUGCAGGAUAUCAGCACGUUUAGUGCUGAGAAGGGCACAUGAGGAUCACCCAUGUGAUCAAUUAAUAUUAAUGCUGC [ENG1/11-B2] (Eterna round: R96, puzzle: Exclusion NG 1) | 0.152 | 0.031 | 0.0231 | – | – | – |
| GCAGCUUAGUUAACAGACUGUUACAUGAGGAUCACCCAUGUGCAGGAUAUGGUCUGGAUUACAGGCCAGAAGGGUACAGGCUGC [Eli exng3 - 017] (Eterna round: R96, puzzle: Exclusion NG 3) | 0.0108 | 0.0134 | 0.0066 | – | – | – |
| GCAGGAUAAGUGAGGAUAUACCUAUGGAUACAUAGGUAGAAGGCACAUGAGGAUCACCCAUGUUCCUUACCUGC [Fiskers BMX 4 - 66] (puzzle: Brourd's mod of Exclusion 4) | – | – | – | 0.042 | 0.0115 | 0.013 |
| GCAGUGCGAGGAUAUACAUGAGGAUCACCCAUGUGAGAAUAAGAAGUGAGGAAGAAAAGUAGAAGGCGCGUUGG [Mat - Exclusion 3 - Mod of Salish D66] (Eterna round: R96, puzzle: Exclusion 3) | 0.103 | 0.0526 | 0.0495 | – | – | – |
| GCAGUGCGAGGAUAUACAUGAGGAUCACCCAUGUGAGAAUAAGAAGUGAGGAAGAAAAGUAGAAGGCGCGUUGG [Mat - Exclusion 3 - Mod of Salish D66] (puzzle: Exclusion 3) | – | – | – | 0.0775 | 0.0364 | 0.0596 |
| GCAGUUCGAGUUAGGAUAUGAUUAAAAUUCGGAUAUCAGAAGGAACUUGAGGAUCACCCAAGUAUAGAUGUUGC [JR_BMEx4_Sub059] (Eterna round: R97, puzzle: Brourd's mod of Exclusion 4) | 0.0421 | 0.0171 | – | – | – | – |
| GCAUGUUAUGUCAGGAUAUACCUAUGGAUACAUAGGUAGAAGGGACAUGAGGAUCACCCAUGUCCUAACCAUGC [Fiskers BMX 4 - 22] (puzzle: Brourd's mod of Exclusion 4) | – | – | – | – | 0.0114 | – |
| GCCAGAGCAGGAUAUUCAAUAUCUCACAUGAGGAUCACCCAUGUCCAGCGAAAGCUGGAGGGAGAAGGGCUCUGGC [Fiskers Ex 5 - 9] (puzzle: Exclusion 5) | – | – | – | 0.0421 | 0.0573 | 0.0616 |
| GCCAUGUGAGGAUAUGUGGUCGAAUAUGAAAGUGAUUGACCAUAGAAGGCACAUGAGGAUCACCCAUGUCCUUU [Eternabot (L2) Solution 64] (Eterna round: R97, puzzle: Exclusion 4) | 0.131 | 0.0273 | – | – | – | – |
| GCCCGGGCAGGAUAUACAAGCUUGAGCUGAAAAGUUCGAGUACAUGAGGAUCACCCAUGUAGAAGGGCCCGGGC [-37.5, -35.6 kcal, A 28% 1 bis] (Eterna round: R97, puzzle: Exclusion 2) | 0.0294 | 0.0187 | – | – | – | – |
| GCCGAAAGUGUGAGGAUAUACCUAUGGAUACAUAGGUAGAAGGCACAUGAGGAUCACCCAUGUUCCUAAUCGGC [Eli bmx4 4.18] (Eterna round: R97, puzzle: Brourd's mod of Exclusion 4) | 0.306 | 0.103 | – | – | – | – |
| GCCGAUUAAGUGAGGAUAUACCUAUGGAUACAUAGGUAGAAGGUACAUGAGGAUCACCCAUGUUCCUUAACGGC [Fiskers BMX 4 - 8] (puzzle: Brourd's mod of Exclusion 4) | – | – | – | – | 0.0104 | – |

| Sequence | apparent KD of MS2 coat protein (input ligand: FMN 200 uM) [µM] | apparent KD of MS2 coat protein (input ligand: none) [µM] | apparent KD of MS2 coat protein [1] [µM] | apparent KD of MS2 coat protein [2] [µM] | apparent KD of MS2 coat protein [3] [µM] | apparent KD of MS2 coat protein [4] [µM] |
| --- | --- | --- | --- | --- | --- | --- |
| GCCGGAGCAGGAUAUUCAAUAUCACACAUGAGGAUCACCCAUGUCCAGCGAAAGCUGGAGGGAGAAGGGCUCUGGC [Fiskers Ex 5 - 15] (puzzle: Exclusion 5) | – | – | – | – | 0.0561 | – |
| GCCGUAAGUGUGAGGAUAUACCUAUGGAUACAUAGGUAGAAGGCACAUGAGGAUCACCCAUGUUCUCAAUCGGC [Eli BMX r4m5] (Eterna round: R97, puzzle: Brourd's mod of Exclusion 4) | 0.667 | 0.125 | – | – | – | – |
| GCCUACGCAGGAUAUGUCCAGGGAAACAUGAGGAUCACCCAUGUGGAGUGGACUCGGGUUGCAGAAGGGCGGGCAC [Eternabot (Original) Solution 3] (Eterna round: R97, puzzle: Exclusion 5) | 0.0212 | 0.016 | – | – | – | – |
| GCCUUACCGGUCAGGAUAUACAUUCGUCACUCCUUGUAGAAGGGACAUGAGGAUCACCCAUGUACAUUACAUUC [alecazam41] (Eterna round: R97, puzzle: Brourd's mod of Exclusion 4) | 0.022 | 0.0261 | – | – | – | – |
| GCCUUAUCCGUCAGGAUAUACAGCCGCUCGUUGUUGUAGAAGGGACAUGAGGAUCACCCAUGUACGUACCAUUG [alecazam4] (Eterna round: R97, puzzle: Brourd's mod of Exclusion 4) | 0.0272 | 0.0227 | – | – | – | – |
| GCCUUAUCUGUCAGGAUAUACAAUAAAAUUUUUUUGUAGAAGGGACAUGAGGAUCACCCAUGUACAUUACAUUG [alecazam22] (Eterna round: R97, puzzle: Brourd's mod of Exclusion 4) | 0.315 | 0.0497 | – | – | – | – |
| GCGAAAACAAGCAAGUGAAACAUGAGGAUCACCCAUGUCCUCAUUUGCUCGUCUUAUAAAAGCUAUCGAAAGAUAGC [Mat - Sensor v3 - turn-off var 1 - Eli Mod - D49] (puzzle: Sensor v3, turn-off variant 1) | – | – | – | 0.00941 | 0.205 | 0.00978 |
| GCGCGAAGGUAGGAUAUCCGGCGAUCUUCCGUCGGAGAAGGACCCACAUGAGGAUCACCCAUGUGGUGAUCCUG [eternacac ex6r4 sub13] (Eterna round: R97, puzzle: Exclusion 6) | 0.012 | 0.0239 | – | – | – | – |
| GCGCGAAGGUAGGAUAUCGACGGAUCUUCCGGCCGAGAAGGACCCACAUGAGGAUCACCCAUGUGGUGAUCCUG [eternacac ex6r4 sub10] (Eterna round: R97, puzzle: Exclusion 6) | 0.0175 | 0.0165 | – | – | – | – |
| GCGCGGUGAGGAUAUGCGGCGCGCGGGCGCGGGCGGGCGCGGCAGAAGGCACAUGAGGAUCACCCAUGUGGGCG [Prefect Exclusion4] (Eterna round: R97, puzzle: Exclusion 4) | 0.109 | 0.0242 | – | – | – | – |
| GCGCUGUGAGGAUAUUAGUAGUAGAUAAAAUAAACUAUUACUGAGAAGGCACAUGAGGAUCACCCAUGUUGCGC [Eli x4 4.04] (Eterna round: R97, puzzle: Exclusion 4) | 0.0247 | 0.0196 | – | – | – | – |
| GCGGACAAGAUAUAAAUAUCAGAGACAUGAGGAUCACCCAUGUAGGAUAUCGAUUCGAAACGAAUCGAGAAGGGCAUAGUCCGC [JL denovo 1] (Eterna round: R96, puzzle: Exclusion NG 3) | 0.0188 | 0.0187 | 0.0138 | – | – | – |
| GCGGUACAUGAGGAUCACCCAUGUCAGGAUAUCCGCUGUUUGUUAAUAAACAAGCGGUGGAGAAGGGACUUCGC [-26.2, -25.5 kcal, 27% A] (Eterna round: R97, puzzle: Exclusion 1) | 0.0352 | 0.0315 | – | – | – | – |
| GCGUGACAUGAGGAUCACCCAUGUGAGGAUAUCUGGAUAAUUUUUAUUUUAGAUAUCCAGAGAAGGCACAUGCU [Ex1-3: 2Z] (puzzle: Exclusion 1) | – | – | – | – | 0.0624 | – |
| GCUAACCGAGGAUAUACAUGAGGAUCACCCAUGUUCGAUAUCCUCAUUAGAACUACAUGUAGAAGGCGGUAAGC [Eternabot (Original) Solution 2] (Eterna round: R97, puzzle: Exclusion 3) | 0.0152 | 0.0138 | – | – | – | – |
